Substrate in this data set: CC[C@H](C)[C@H](N)C(=O)O
Nature of the data set: HPLC of 4-hydroxyisoleucine after precolumn derivatization; Michaelis-Menten fit. It is filed as biochemical, Bacillus thuringiensis. The note with it: apparent, L-Ile 0.02 to 5 mM, 10 mM alpha-ketoglutarate, 5 mM FeSO4, 10 mM ascorbic acid, 100 mM Tris-HCl pH 7.0, 30 °C. From the text:
HPLC of 4-hydroxyisoleucine after precolumn derivatization; Michaelis-Menten fit on IDO (L-isoleucine dioxygenase)

In general, Km refers to the substrate concentration at which the rate is half of its maximum. What is called Vmax is the rate approached at saturating substrate. As usually defined, the kcat is the maximal rate divided by the concentration of active sites. As usually defined, the kcat/Km is the second-order rate constant that governs catalysis at low substrate concentration.

B1: IDO (L-isoleucine dioxygenase) (Bacillus thuringiensis) (protein)
chain: MKMSGFSIEEKVHEFESKGFLEISNEIFLQEEENHRLLTQAQLDYYNLEDDAYGECRAGSYSRYIKYVDSPDYILDNSNDYFQSKEYNYDDGGKVRQFHSINDSFLYNPLIQNIVRFDTEFAFKTNIIDTSKDLIIGLHQVRYKATKERPSFSSPIWLHKDDEPVVFLHLMNLSNTAIGGDNLIANSPREINQFISLKEPLETLVFGQKVFHAVTPLGTECSTEAFRDILLVTFSYKETK
notes: motif His159-X-Asp161-X50-His212
B1: the Michaelis-Menten constant (Km) worked out at 200 µM, the maximal velocity (Vmax) was determined as 2.18 µmol/min/mg, the turnover number (kcat) turned out to be 0.0727 s⁻¹ and the kcat/Km was 363 M⁻¹ s⁻¹.

Values taken from publication PMC5972919, “A strategy for L-isoleucine dioxygenase screening and 4-hydroxyisoleucine production by resting cells” (Bioengineered, 2017).
